The subject of test [1] is FOP patient derived cells. The test is described as follows: Evaluation of binding inhibitors: chondrocyte differentiation of FOP patient derived cells in copresence of human activin A. It counts as cell-based. The note with it: copresence of 30 ng/mL human activin A, 6 days; vs activin-treated group. As to the method: Patient iPS cell line-derived mesenchymal stem cell-like cells were prepared by the same method as Example 1. The mesenchymal stem cell-like cells were cultured for 6 days by the same method as Example 3, for differentiation to chondrocytes. The effect of each factor on differentiation to chondrocytes was examined, with neutralizing antibody for human activin A (product of R&D Systems, Inc., trade name: Human/Mouse/Rat Activin A βA subunit Antibody), follistatin (product of R&D Systems, Inc., trade name: Recombinant Human Follistatin 315 as 30-344), follistatin-like 3 (product of R&D Systems, Inc., trade name: Recombinant Human Follistatin-related Gene Protein/FLRG), ACVR2A-Fc chimeric protein (product of R&D Systems, Inc., trade name: Recombinant Human Activin RIIA Fc Chimera (CHO)), or ACVR2B-Fc chimeric protein (product of R&D Systems, Inc., trade name: Recombinant Human Activin RIIB Fc Chimera), in the copresence of 30 ng/mL of human activin A. The ACVR2A-Fc chimeric protein is a fusion protein in which a polypeptide fragment having the amino acid sequence of positions 20 to 134 of the amino acid sequence listed as SEQ ID NO: 12, and the Fc region of the human-derived antibody, are bonded via a linker sequence (Ile-Glu-Gly-Arg-Met-Asp). The ACVR2B-Fc chimeric protein is a fusion protein in which a polypeptide fragment having the amino acid sequence of positions 19 to 134 of the amino acid sequence listed as SEQ ID NO: 14, and the Fc region of the human-derived antibody, are bonded via a linker sequence (Ile-Glu-Gly-Arg-Met-Asp). The extent of differentiation to chondrocytes was evaluated by Alcian blue staining and sulfated glycosaminoglycan assay, similar to Example 3. In FIG. 6(B), the bar graph indicates the mean values for each treated group, and the error bars represent S.D.

Test [2] deals with FOP patient derived cells. The test is described as follows: Differentiation to chondrocytes (Alcian blue, sulfated glycosaminoglycan assay) of FOP patient derived cells. The class given is cell-based, human. As to the method: (§1) Mesenchymal stem cell-like cells from a patient iPS cell line and a gene-corrected iPS cell clone were each prepared by the same method as Example 1. The mesenchymal stem cell-like cells were cultured for 6 days under the medium conditions used in the method of Umeda et al. (Sci. Rep., 2012, 2, 455), for differentiation to chondrocytes. During differentiation, 100 ng/mL of human activin A, 100 ng/mL of human BMP-7 or 1 ng/mL of human TGF-β3 (product of R&D Systems, Inc., trade name: Recombinant Human TGF-beta 3) was added and the effect of each factor on differentiation to chondrocytes was examined. The extent of differentiation to chondrocytes was measured with Alcian blue dye and a sulfated glycosaminoglycan assay kit (product of Biocolor, Ltd., trade name: Blyscan Glycosaminoglycan Assay Kit). In FIG. 4, the bar graph indicates the mean values for each treated group, and the error bars represent S.D.

The test system of test [3] is gene-corrected clone derived cells. The test is described as follows: Differentiation to chondrocytes (sulfated glycosaminoglycan assay) of gene-corrected clone derived cells. The class given is cell-based, human. The note with it: 100 ng/mL BMP-7 or 1 ng/mL TGF-β3, 6 days, vs untreated group. As for the experimental part:
as §1

B1: ACVR2B-Fc chimeric protein: Fusion of positions 19 to 134 of SEQ ID NO: 14 with human antibody Fc region via linker Ile-Glu-Gly-Arg-Met-Asp (protein)
chain: SGRGEAETRECIYYNANWELERTNQSGLERCEGEQDKRLHCYASWRNSSGTIELVKKGCWLDDFNCYDRQECVATEENPQVYFCCCEGNFCNERFTHLPEAGGPEVTYEPPPTAPTIEGRMD
modifications: left off: a dimerising Fc or GST
Take B1: the “differentiation of FOP patient derived cells to chondrocytes (Alcian blue staining, sulfated glycosaminoglycan assay)” value (“differentiation” below) in test [1] is listed as “inhibited”.

B2: follistatin-like 3: Recombinant Human Follistatin-related Gene Protein/FLRG (R&D Systems) (protein, listed as Homo sapiens)
chain: MRPGAPGPLWPLPWGALAWAVGFVSSMGSGNPAPGGVCWLQQGQEATCSLVLQTDVTRAECCASGNIDTAWSNLTHPGNKINLLGFLGLVHCLPCKDSCDGVECGPGKACRMLGGRPRCECAPDCSGLPARLQVCGSDGATYRDECELRAARCRGHPDLSVMYRGRCRKSCEHVVCPRPQSCVVDQTGSAHCVVCRAAPCPVPSSPGQELCGNNNVTYISSCHMRQATCFLGRSIGVRHAGSCAGTPEEPPGGESAEEEENFV
For the molecule B2, the “differentiation” value in test [1] is reported as “inhibited”.

B3: follistatin: Recombinant Human Follistatin 315 (R&D Systems) (protein)
chain: GNCWLRQAKNGRCQVLYKTELSKEECCSTGRLSTSWTEEDVNDNTLFKWMIFNGGAPNCIPCKETCENVDCGPGKKCRMNKKNKPRCVCAPDCSNITWKGPVCGLDGKTYRNECALLKARCKEQPELEVQYQGRCKKTCRDVFCPGSSTCVVDQTNNAYCVTCNRICPEPASSEQYLCGNDGVTYSSACHLRKATCLLGRSIGLAYEGKCIKAKSCEDIQCTGGKKCLWDFKVGRGRCSLCDELCPDSKSDEPVCASDNATYASECAMKEAACSSGVLLEVKHSGSCNSISEDTEEEEEDEDQDYSFPISSILEW
In the case of B3, the “differentiation” value in test [1] was “inhibited”.

B4: TGF-β3: Recombinant Human TGF-beta 3 (R&D Systems) (protein, UniProt P10600 301-412, looked up)
Transforming growth factor …: ALDTNYCFRNLEENCCVRPLYIDFRQDLGWKWVHEPKGYYANFCSGPCPYLRSADTTHSTVLGLYNTLNPEASASPCCVPQDLEPLTILYYVGRTPKVEQLSNMVVKSCKCS
Consider B4, for which, in test [2] (1 ng/mL TGF-β3, 6 days), the “difference in cartilage induction between FOP patient derived cells and gene-corrected clone derived cells” value is listed as “no significant difference”. Moreover, in test [2] (100 ng/mL BMP-7 or 1 ng/mL TGF-β3, 6 days), the “cartilage induction effect compared to the effect exhibited by activin A on FOP patient derived cells” value was “weaker”. In addition, the “cartilage induction (sulfated glycosaminoglycan assay)” value in test [2] (FOP patient derived cells, 100 ng/mL activin A, 100 ng/mL BMP-7 or 1 ng/mL TGF-β3, 6 days, vs untreated group) was “significantly enhanced”; in test [3] it was “significantly enhanced”.

The values are drawn from patent US10260068B2, “Prophylactic agent and therapeutic agent for fibrodysplasia ossificans progressiva” (Sumitomo Dainippon Pharma Co., Ltd., priority 2014, dated 2019).
